Experimental data published in paper PMC11821529.

Legend:
[1] = target: Myc-tagged wild-type Mops condylurus ISG15 (Mops condylurus); assay: cross-linking
[2] = target: Myc-tagged Rhinolophus affinis ISG15 S77C (Rhinolophus affinis); assay: cross-linking

Substance | stoichiometry N [1] | stoichiometry N [2]
Myc-tagged wild-type Mops condylurus ISG15 (natural protein) | 2 | 
Myc-tagged Rhinolophus affinis ISG15 S77C (natural protein) |  | 2
